For this experiment, the target named is Fluorescein-labeled CD4 tail peptide (residue 403-419). Kind of experiment: other fluorescence titration; 1.0 uM fluorescein-labeled CD4 tail peptide in PBS, stirred cuvette, 25 C, 30 min incubation with Nef-His proteins at 0.01 to 10 uM in 0.5 ml; quenching of emission (excitation 492 nm, emission 516 nm) as percent reduction, average of three measurements.

The substance “Nef (C55/A)-His, untreated (natural protein)” had a percent quench of the peptide's fluorescence at 10 uM Nef-His of 10.6%.

In the case of “Nef (wt)-His, unmodified (natural protein)”, the percent quench of the peptide's fluorescence at 10 uM Nef-His was 11.6%.

For TPCK-modified Nef-His (natural protein), the percent quench of the peptide's fluorescence at 10 uM Nef-His came to 4.9%.

In turn, “TPCK-treated Nef (C55/A)-His (natural protein)” had a percent quench of the peptide's fluorescence at 10 uM Nef-His of 9.8%.

For the origin of these results see article PMC2917394.
